Measured values from PMC10981688 (2024).

Target: recombinant human PCSK9 with 6x His tag (proprotein convertase subtilisin/kexin type-9) (human, UniProt Q8NBP7 31-692)
Assay: BLI

B1: recombinant human CAP1 (adenylyl cyclase-associated protein 1) (natural protein)
chain: MADMQNLVERLERAVGRLEAVSHTSDMHRGYADSPSKAGAAPYVQAFDSLLAGPVAEYLKISKEIGGDVQKHAEMVHTGLKLERALLVTASQCQQPAENKLSDLLAPISEQIKEVITFREKNRGSKLFNHLSAVSESIQALGWVAMAPKPGPYVKEMNDAAMFYTNRVLKEYKDVDKKHVDWVKAYLSIWTELQAYIKEFHTTGLAWSKTGPVAKELSGLPSGPSAGSCPPPPPPCPPPPPVSTISCSYESASRSSLFAQINQGESITHALKHVSDDMKTHKNPALKAQSGPVRSGPKPFSAPKPQTSPSPKRATKKEPAVLELEGKKWRVENQENVSNLVIEDTELKQVAYIYKCVNTTLQIKGKINSITVDNCKKLGLVFDDVVGIVEIINSKDVKVQVMGKVPTISINKTDGCHAYLSKNSLDCEIVSAKSSEMNVLIPTEGGDFNEFPVPEQFKTLWNGQKLVTTVTEIAG
koff: 0.00132 s⁻¹
